Experimental data: patent publication US20230035037A1 (published 2023)

Key:
[1] = biological target: T1, LRPAP1 (signal peptide), V-variant: C-terminal serine replaced by valine peptide on HLA-A*02:01 (human); assay: titration of short peptide on HLA-A*0201 positive T2 cells or EBV-JY cells; cytokine secretion by the LRPAP1-specific T cell clone (FIG. 1d, 1e); T cell clone or line
T1 peptide: FLGPWPAAV

[2] = biological target: T2, LRPAP1 (signal peptide) peptide on HLA-A*02:01 (human); assay: as above
T2 peptide: FLGPWPAAS

[3] = biological target: T3, LRPAP1 (signal peptide), I-variant at position 9 peptide on HLA-A*02:01 (human); assay: as above
T3 peptide: FLGPWPAAI

[4] = biological target: T4, LRPAP1 (signal peptide), L-variant at position 9 peptide on HLA-A*02:01 (human); assay: as above
T4 peptide: FLGPWPAAL

[5] = biological target: … (SEQ ID NO: 2) presented by HLA-A*0201 on cells (human); assay: cell-based or functional assay
[6] = biological target: … (SEQ ID NO: 16) presented by HLA-A*0201 on peptide-pulsed cells (human); assay: cell-based or functional assay
[7] = biological target: … (SEQ ID NO: 1) presented by HLA-A*0201 on peptide-pulsed cells (human); assay: cell-based or functional assay
[8] = biological target: … (SEQ ID NO: 18) presented by HLA-A*0201 on peptide-pulsed cells (human); assay: cell-based or functional assay

EC50 of peptide [1]: 0.1 mg/L
EC50 of peptide [2]: 1.9 mg/L
EC50 of peptide [3]: 0.7 mg/L
EC50 of peptide [4]: 3.7 mg/L
EC50 of the T cell response to peptide-pulsed HLA-A*0201 positive cells (functional T cell avidity) [5]: 1.9 mg/L
EC50 of the T cell response to peptide-pulsed HLA-A*0201 positive cells (functional T cell avidity) [6]: 0.7 mg/L
EC50 of the T cell response to peptide-pulsed HLA-A*0201 positive cells (functional T cell avidity) [7]: 0.1 mg/L
T cell activation, V-peptide against S-peptide [7]: 19 fold
EC50 of the T cell response to peptide-pulsed HLA-A*0201 positive cells (functional T cell avidity) [8]: 3.7 mg/L
B1: TCR of the LRPAP1-specific T cell clone 1A8 (TCR, V domains shown)
Valpha: RKEVEQDPGPFNVPEGATVAFNCTYSNSASQSFFWYRQDCRKEPKLLMSVYSSGNEDGRFTAQLNRASQYISLLIRDSKLSDSATYLCVVMGYGQNFVFGPGTRLSVLP
Vbeta: GAVVSQHPSWVICKSGTSVKIECRSLDFQATTMFWYRQFPKQSLMLMATSNEGSKATYEQGVEKDKFLINHASLTLSTLTVTSAHPEDSSFYICSAMGRQSTDTQYFGPGTRLTVL
